Values of other authors, collected in publication PMC3040723.

Molecular target: IscU (Escherichia coli) (UniProt P0ACD4)
Sequence (P0ACD4 whole entry): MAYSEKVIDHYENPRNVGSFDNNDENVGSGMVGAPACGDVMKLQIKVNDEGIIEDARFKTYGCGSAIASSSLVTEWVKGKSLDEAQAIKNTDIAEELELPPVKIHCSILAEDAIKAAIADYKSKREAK

Sequence of HscB (P0A6L9 whole entry): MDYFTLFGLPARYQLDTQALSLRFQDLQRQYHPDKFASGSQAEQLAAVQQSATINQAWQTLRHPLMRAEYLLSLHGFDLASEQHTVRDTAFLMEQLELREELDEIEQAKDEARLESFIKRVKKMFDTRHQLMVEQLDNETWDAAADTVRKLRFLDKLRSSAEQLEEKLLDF

In the case of HscB (from UniProt P0A6L9), the Kd is given as 13 µM.
